{"source": "paper PMC9674614", "about": "(Nature Communications, 2022)", "key": {"[1]": {"target": "C-terminal domain of vaccinia virus C16 (vaccinia virus strain Western Reserve (WR)) (UniProt P03296)", "experiment": "SEC; C16-C alone"}, "[2]": {"target": "vaccinia virus protein C4, full length, from baculovirus (vaccinia virus strain Western Reserve (WR))", "experiment": "SEC"}, "[3]": {"target": "the molecule itself", "experiment": "mass photometry; purified recombinant C16 alone"}, "SEC": {"target": "the molecule itself", "experiment": "SEC"}}}
{"molecule": "C-terminal domain of vaccinia virus C16 (from UniProt P03296) (domain or fragment)", "values": [{"measurement": "stoichiometry N", "setting": "[1]", "value": 2}]}
{"molecule": "vaccinia virus protein C4, full length, from baculovirus (natural protein)", "values": [{"measurement": "stoichiometry N", "setting": "[2]", "value": 2}]}
{"molecule": "vaccinia virus (strain Western Reserve) protein C16, full length, from E. coli (natural protein, also called VACV-C16; FLC16) MDIYDDKGLQTIKLFNNEFDCIRNDIRELFKHVTDSDSIQLPMEDNSDIIENIRKILYRRLKNVECVDIDSTITFMKYDPNDDNKRTCSNWVPLTNNYMEYCLVIYLETPICGGKIKLYHPTGNIKSDKDIMFAKTLDFKSKKVLTGRKTIAVLDISVSYNRSMTTIHYNDDVDIDIHTDKNGKELCYCYITIDDHYLVDVETIGVIVNRSGKCLLVNNHLGIGIVKDKRISDSFGDVCMDTIFDFSEARELFSLTNDDNRNIAWDTDKLDDDTDIWTPVTEDDYKFLSRLVLYAKSQSDTVFDYYVLTGDTEPPTVFIFKVTRFYFNMPK", "values": [{"measurement": "stoichiometry N", "setting": "[3]", "value": 4}, {"measurement": "stoichiometry N", "setting": "SEC", "value": 2}]}
